Results taken from US12214008B2, “Protein interfaces” (SyntheX, Inc., priority 2016, dated 2025).
Substitutions are numbered along the chain they refer to.

Legend:
Assay type in all cases: binding
H.sapiens Rad51 = target: T1, H.sapiens Rad51 (Homo sapiens, UniProt Q06609); assay: Y2H assay RAD51/SEQ ID NO.: 5 pair; design: key: cells having the interaction would survive (+); cells not having the interaction would die (−) on selective media (−ADE, −HIS)
T1 construct: expressed in transfected cells
T1 sequence (Q06609 1-339): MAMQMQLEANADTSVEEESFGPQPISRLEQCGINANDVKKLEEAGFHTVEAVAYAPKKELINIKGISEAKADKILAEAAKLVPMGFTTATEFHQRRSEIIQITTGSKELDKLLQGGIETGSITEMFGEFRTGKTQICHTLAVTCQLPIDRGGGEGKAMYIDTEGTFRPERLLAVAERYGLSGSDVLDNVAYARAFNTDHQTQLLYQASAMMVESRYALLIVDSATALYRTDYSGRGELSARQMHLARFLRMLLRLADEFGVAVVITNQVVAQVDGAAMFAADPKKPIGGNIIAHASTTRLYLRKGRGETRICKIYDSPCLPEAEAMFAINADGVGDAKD
Experimental: (§1) RAD51-binding peptides were tested for ability to bind RAD51 of several different species using a “conventional” Y2H assay, where interaction between the two-hybrid pair drove expression of ADE2 and HIS genes.

D.rerio Rad51 = assay: Y2H assay RAD51/SEQ ID NO.: 5 pair; design: key: cells having the interaction would survive (+); cells not having the interaction would die (−) on selective media (−ADE, −HIS)
Experimental: as §1

C.albicans Rad51 = assay: Y2H assay RAD51/SEQ ID NO.: 5 pair; design: key: cells having the interaction would survive (+); cells not having the interaction would die (−) on selective media (−ADE, −HIS)
Experimental: as §1

[1] = target: T2, Rad51 (Q202R, Y205D, Q206A) (Homo sapiens, UniProt Q06609, Q202R/Q206A/Y205D); assay: Y2H assay, human RAD51 mutants; design: key: (+) denotes a successful interaction between the two Y2H baits; (−) denotes a lack of interaction
T2 construct: expressed in transfected cells
T2 sequence (Q06609 1-339 Q202R/Y205D/Q206A): T1 sequence (Q06609 1-339) with Q202R, Y205D, Q206A
Experimental: (§2) The ability of peptides to bind human RAD51 with various mutations was then tested by Y2H assay. […] While mutations affecting BRCA2 binding had no effect on peptide binding, mutations that affected RAD51-AP1 binding did disrupt peptide binding. As these mutations were at residues 202, 205, and 206, they were consistent with the previous fusion data showing binding somewhere in the 190-218 region, and indicated the peptide SEQ ID NO.: 5 contacts at least residues 202, 205, and 206 of RAD51.

Rad51 (A190L; A192L) = target: T3, Rad51 (A190L; A192L) (Homo sapiens, UniProt Q06609, A190L/A192L); assay: Y2H assay, human RAD51 mutants; design: key: (+) denotes a successful interaction between the two Y2H baits; (−) denotes a lack of interaction
T3 construct: expressed in transfected cells
T3 sequence (Q06609 1-339 A190L/A192L): T1 sequence (Q06609 1-339) with A190L, A192L
Experimental: as §2

Rad51 (S208E; A209D) = target: T4, Rad51 (S208E; A209D) (Homo sapiens, UniProt Q06609, A209D/S208E); assay: Y2H assay, human RAD51 mutants; design: key: (+) denotes a successful interaction between the two Y2H baits; (−) denotes a lack of interaction
T4 construct: expressed in transfected cells
T4 sequence (Q06609 1-339 S208E/A209D): T1 sequence (Q06609 1-339) with S208E, A209D
Experimental: as §2

[2] = target: T5, Rad51 (S208L; A209E; M210A) (Homo sapiens, UniProt Q06609, A209E/M210A/S208L); assay: Y2H assay, human RAD51 mutants; design: key: (+) denotes a successful interaction between the two Y2H baits; (−) denotes a lack of interaction
T5 construct: expressed in transfected cells
T5 sequence (Q06609 1-339 S208L/A209E/M210A): T1 sequence (Q06609 1-339) with S208L, A209E, M210A
Experimental: as §2

KRRRRRRRKRLGVRLRVSRML [SEQ ID NO.: 5]
−: Y2H interaction with SEQ ID NO.: 5 [1]
+: Compound 5 Sequence Binding (H.sapiens Rad51) | Compound 5 Sequence Binding (D.rerio Rad51) | Compound 5 Sequence Binding (C.albicans Rad51) | Y2H interaction with SEQ ID NO.: 5 (Rad51 (A190L; A192L)) | Y2H interaction with SEQ ID NO.: 5 (Rad51 (S208E; A209D)) | Y2H interaction with SEQ ID NO.: 5 [2]
